Earlier results, collected in US20100215737A1, “COMBINATION PHARMACEUTICAL COMPOSITIONS” (priority 2007, published 2010).

Test system: MCO
Settings: 1 mg/kg iv alone, 1, 2 or 3 h after occlusion

B1: rt-PA: tissue plasminogen activator, thrombolytic (protein, UniProt P00750 36-562, looked up)
Tissue-type plasminogen …: SYQVICRDEKTQMIYQQHQSWLRPVLRSNRVEYCWCNSGRAQCHSVPVKSCSEPRCFNGGTCQQALYFSDFVCQCPEGFAGKCCEIDTRATCYEDQGISYRGTWSTAESGAECTNWNSSALAQKPYSGRRPDAIRLGLGNHNYCRNPDRDSKPWCYVFKAGKYSSEFCSTPACSEGNSDCYFGNGSAYRGTHSLTESGASCLPWNSMILIGKVYTAQNPSAQALGLGKHNYCRNPDGDAKPWCHVLKNRRLTWEYCDVPSCSTCGLRQYSQPQFRIKGGLFADIASHPWQAAIFAKHRRSPGERFLCGGILISSCWILSAAHCFQERFPPHHLTVILGRTYRVVPGEEEQKFEVEKYIVHKEFDDDTYDNDIALLQLKSDSSRCAQESSVVRTVCLPPADLQLPDWTECELSGYGKHEALSPFYSERLKEAHVRLYPSSRCTSQHLLNRTVTDNMLCAGDTRSGGPQANLHDACQGDSGGPLVCLNDGRMTLVGIISWGLGCGQKDVPGVYTKVTNYLDWIRDNMRP
neuroprotective effect, drug alone: neuroprotective effects when administered alone up to 1 h following occlusion
